The text below walks through data of paper PMC9023267.

Usually Kd stands for the equilibrium constant for the complex coming apart. Lower therefore signals tighter binding.

The target in data set [1] is T1, Mtr4WT (Saccharomyces cerevisiae, UniProt P47047 1-1073).
T1 sequence: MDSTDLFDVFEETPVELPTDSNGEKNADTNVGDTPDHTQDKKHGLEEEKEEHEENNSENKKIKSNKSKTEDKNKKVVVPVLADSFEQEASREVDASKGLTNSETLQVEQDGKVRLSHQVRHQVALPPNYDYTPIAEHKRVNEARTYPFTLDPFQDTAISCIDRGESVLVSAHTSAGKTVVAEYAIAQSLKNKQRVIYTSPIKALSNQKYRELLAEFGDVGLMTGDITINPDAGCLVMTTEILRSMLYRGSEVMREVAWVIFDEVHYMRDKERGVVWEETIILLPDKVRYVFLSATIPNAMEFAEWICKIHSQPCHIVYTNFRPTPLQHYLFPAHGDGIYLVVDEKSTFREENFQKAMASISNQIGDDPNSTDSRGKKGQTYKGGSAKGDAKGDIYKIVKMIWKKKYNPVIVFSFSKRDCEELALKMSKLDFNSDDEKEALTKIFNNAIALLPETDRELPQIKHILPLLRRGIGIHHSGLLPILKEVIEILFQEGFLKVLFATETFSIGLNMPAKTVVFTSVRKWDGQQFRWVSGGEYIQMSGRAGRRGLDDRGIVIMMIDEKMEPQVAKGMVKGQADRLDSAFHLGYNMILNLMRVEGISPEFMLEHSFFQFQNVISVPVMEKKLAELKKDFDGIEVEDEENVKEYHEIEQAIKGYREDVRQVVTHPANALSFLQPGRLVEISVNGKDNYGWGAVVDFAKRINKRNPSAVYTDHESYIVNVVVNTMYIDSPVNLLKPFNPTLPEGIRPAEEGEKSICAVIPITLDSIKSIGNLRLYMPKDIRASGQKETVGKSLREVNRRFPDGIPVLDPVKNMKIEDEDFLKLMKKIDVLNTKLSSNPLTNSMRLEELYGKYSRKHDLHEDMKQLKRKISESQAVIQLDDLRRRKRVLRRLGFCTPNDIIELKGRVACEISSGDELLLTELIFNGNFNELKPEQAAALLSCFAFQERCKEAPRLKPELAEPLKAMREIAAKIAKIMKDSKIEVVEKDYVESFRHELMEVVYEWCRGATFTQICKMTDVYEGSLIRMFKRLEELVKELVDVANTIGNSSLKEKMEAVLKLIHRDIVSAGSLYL
Put plainly: EMSA. (In general: A gel shift assay detects complexes by their altered migration in electrophoresis.)

For data set [2], the target named is T2, Mtr4ΔF (fist-less) (Saccharomyces cerevisiae, UniProt P47047 1-666+=GGG+814-1073, internal_change).
T2 sequence: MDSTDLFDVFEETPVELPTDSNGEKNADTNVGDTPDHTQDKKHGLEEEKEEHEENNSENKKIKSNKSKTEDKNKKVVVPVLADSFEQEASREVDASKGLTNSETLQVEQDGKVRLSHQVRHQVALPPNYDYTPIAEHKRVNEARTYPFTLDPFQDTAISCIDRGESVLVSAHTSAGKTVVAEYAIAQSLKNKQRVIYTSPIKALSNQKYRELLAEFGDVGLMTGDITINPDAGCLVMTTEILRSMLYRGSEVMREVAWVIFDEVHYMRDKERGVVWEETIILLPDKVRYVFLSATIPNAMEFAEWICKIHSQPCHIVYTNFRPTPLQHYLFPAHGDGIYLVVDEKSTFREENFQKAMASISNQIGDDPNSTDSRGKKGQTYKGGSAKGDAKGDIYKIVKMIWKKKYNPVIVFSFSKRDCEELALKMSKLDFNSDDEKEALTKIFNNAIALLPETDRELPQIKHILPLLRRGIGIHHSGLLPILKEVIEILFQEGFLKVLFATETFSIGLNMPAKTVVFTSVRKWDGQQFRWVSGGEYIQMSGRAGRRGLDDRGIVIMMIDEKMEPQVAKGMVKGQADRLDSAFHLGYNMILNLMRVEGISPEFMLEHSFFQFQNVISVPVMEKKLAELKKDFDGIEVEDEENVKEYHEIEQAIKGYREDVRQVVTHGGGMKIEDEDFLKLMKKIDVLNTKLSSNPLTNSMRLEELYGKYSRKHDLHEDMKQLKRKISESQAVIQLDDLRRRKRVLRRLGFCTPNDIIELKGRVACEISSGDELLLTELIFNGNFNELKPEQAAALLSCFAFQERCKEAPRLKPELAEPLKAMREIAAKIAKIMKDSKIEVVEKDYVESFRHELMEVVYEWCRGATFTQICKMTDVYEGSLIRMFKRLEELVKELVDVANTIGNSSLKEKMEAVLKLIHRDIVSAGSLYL
Description: EMSA.

Data set [3] has as its target T2, Mtr4ΔF (fist-less). Put plainly: HDX-MS.

B1: dsRNA16 (dsRNA)
RNA 1: GCGUCUUUACGGUGCUUAAAAA
RNA 2: AGCACCGUAAAGACGC
Take B1: the dissociation constant (Kd) in data set [1] is 1140 ± 80 nM; in data set [2] it was 1420 ± 220 nM.
Turning to GCGUCUUUACGGUGCUUAAAACAAAACAAAACAAAACAAAAA (ssRNA) [ssRNA42], the equilibrium dissociation constant (Kd) in data set [1] stood at 420 ± 40 nM. In addition, the binding result in data set [3] is “binds”.

B2: dsRNA32 (dsRNA)
RNA 1: GCAGGAGCCUAGCUGAAAGAUGUCCUCGGAUCGACGCGUCUUUACGGUGCUUAAAAA
RNA 2: AGCACCGUAAAGACGC
B2 yielded an equilibrium dissociation constant (Kd) in data set [1] of 570 ± 30 nM. Also, the binding result in data set [3] is recorded as “binds”.

B3: tRNAiMet (structured_RNA)
RNA: GGGGUUCACUGCCGUAUAGGCAGAGCGCCGUGGCGCAGUGGAAGCGCGCAGGGCUCAUAACCCUGAUGUCCUCGGAUCGAAACCGAGCGGCGCCAAAAAAAAACGC
modifications: none (hypomodified, in vitro transcript)
With B3, binding in data set [1] was characterised by a dissociation constant (Kd) of 270 ± 20 nM. Further, in data set [3], the binding result is reported as “binds”.
